The values that follow come from article PMC2852416, “Modular Insulators: Genome Wide Search for Composite CTCF/Thyroid Hormone Receptor Binding Sites”.

The target of data set [1] is T1, GST-TR (TRbeta) (human, UniProt P10828 1-461).
T1 sequence: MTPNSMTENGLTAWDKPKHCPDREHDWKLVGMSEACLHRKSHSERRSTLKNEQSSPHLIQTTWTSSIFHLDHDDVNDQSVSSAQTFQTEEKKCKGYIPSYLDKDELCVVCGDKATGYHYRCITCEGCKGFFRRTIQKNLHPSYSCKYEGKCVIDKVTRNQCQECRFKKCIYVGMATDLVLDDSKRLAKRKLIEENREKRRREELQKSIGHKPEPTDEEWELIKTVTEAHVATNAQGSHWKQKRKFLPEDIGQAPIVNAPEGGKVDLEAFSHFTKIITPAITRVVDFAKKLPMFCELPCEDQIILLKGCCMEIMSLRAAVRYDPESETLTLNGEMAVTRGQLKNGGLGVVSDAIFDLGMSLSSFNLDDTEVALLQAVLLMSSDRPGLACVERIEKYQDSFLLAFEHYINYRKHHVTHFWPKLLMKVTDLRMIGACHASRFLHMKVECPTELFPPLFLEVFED
Description: EMSA; PBS pH 7.4, 5 mM MgCl2, 1 mM ZnCl2, 1 mM DTT, 0.1% NP-40, 10% glycerol, 200 ng/ul pdIdC, 25-100 ng/ul salmon sperm DNA, 20 min room temperature; 5% PAGE in TAE. As to conditions: protein: recombinant; tags: GST; label: 32P; blunt. (In general: In EMSA bound probe runs differently from free probe, usually more slowly.)

Data set [2] concerns the target T1, GST-TR (TRbeta). Description: competition; mutated F2 against COMT DR4 probe; PBS pH 7.4, 5 mM MgCl2, 1 mM ZnCl2, 1 mM DTT, 0.1% NP-40, 10% glycerol, 200 ng/ul pdIdC, 25-100 ng/ul salmon sperm DNA, 20 min room temperature; 5% PAGE in TAE. As to conditions: protein: recombinant; tags: GST; 5' overhangs 4 nt.
The target of data set [3] is T1, GST-TR (TRbeta). Description: competition; 50-fold excess against COMT DR4 probe; PBS pH 7.4, 5 mM MgCl2, 1 mM ZnCl2, 1 mM DTT, 0.1% NP-40, 10% glycerol, 200 ng/ul pdIdC, 25-100 ng/ul salmon sperm DNA, 20 min room temperature; 5% PAGE in TAE. As to conditions: protein: recombinant; tags: GST; label: 32P; 5' overhangs 4 nt.

B1: COMT DR4 (dsDNA)
DNA 1: ACCCGAGGGCACCAGAGGGCACGAGA
DNA 2: TCTCGTGCCCTCTGGTGCCCTCGGGT
In the case of B1, the binding result with GST-TR (TRbeta) [1] is on record as “binds”.

B2: F2mut TRE (dsDNA)
DNA 1: AGCTTTTAGTTACTTATTGGGTCCAGCTGATCCCAG
DNA 2: GATCCTGGGATCAGCTGGACCCAATAAGTAACTAAA
B2: the binding result with GST-TR (TRbeta) [2] is on record as “no binding”.

B3: F2 TRE (ER6) (dsDNA)
DNA 1: AGCTTTTAGTTACTTATTGACCCCAGCTGAGGTCAG
DNA 2: GATCCTGACCTCAGCTGGGGTCAATAAGTAACTAAA
Take B3: in the data set with GST-TR (TRbeta) [3], the binding result is recorded as “binds”.
